Assay results: US8652467B2, “Dek protein compositions and methods of using the same” (The Regents of the University of Michigan, priority 2005, dated 2014)
Entries after “also recorded” stand apart in the source; their conditions may differ.

Legend:
[1] = test system: Human Microvascular Endothelial Cells (HMVEC); test: HMVEC chemotaxis (cell migration assay); type: cell-based; conditions: 3.5 μg purified recombinant DEK vs purification buffer control
Procedure: Cell migration assay (See, e.g., Koch et al., Arthritis & Rheumatism 44: 31-40, (2001)) was performed with either 3.5 μg of purified, recombinant DEK diluted in PBS, or with just the purification buffer diluted in PBS (control). Nine high-power fields were assayed per sample, and results expressed as the number of cells migrating per well. Error bars show the mean deviation of two separate experiments (*p=0.0249).

[2] = test system: neutrophils; test: Neutrophil migration into the peritoneum after intraperitoneal injection; type: in vivo, C57BL6 mice; conditions: 50 μg intraperitoneal, 8 h following injection, vs GLI-2 and PBS controls
Procedure: (A). Purified neutrophils were placed in the upper chambers of a 24-well chemotaxis microchamber plate with pore size of 3 μM or 5 μM. Lower chambers contained RPMI medium with various concentrations of recombinant DEK, as indicated. The bar labeled “control” contained only media in the lower chamber. The bar labeled “DEK up” had DEK in the upper chamber and media in the lower chamber. […] (B). Groups of mice received intraperitoneal injections of either PBS or 50 μg of either LPS, recombinant DEK, or a recombinant protein control prepared in parallel to DEK in baculovirus (an isoform of human GLI-2). Twenty mice were tested in each of the four groups. Half of the mice in each group were sacrificed after 4 hours (white bars), and the other half at 8 hours (black bars) after intraperitoneal injection, and then subjected to peritoneal lavage. The bars represent the average number of neutrophils migrating into the peritoneum of each group of mice.
In order to confirm that DEK is a chemoattractant, an in vivo murine model was used. Four groups of twenty 4-6 week old male C57BL6 mice were injected intraperitoneally with 50 μg of DEK, 50 μg of a recombinant control protein also prepared in baculovirus (GLI-2) (See, e.g., Smith et al., J Virol 75, 2301-13 (2001)), 50 μg of LPS, or PBS alone.

[3] = test system: circular SV-40 DNA; test: Topology assay with His-DEK and GST-ALY; type: biochemical; conditions: in the presence of 1 U topoisomerase I
Procedure: 10 ng (0.003 pmol) of circular SV-40 DNA was incubated with 2, 4 or 8 pmol of HIS-DEK (DEK) or GST-ALY (ALY) or either 2 or 4 pmol HIS-DEK and 2, 4 or 8 pmol GST-ALY in the presence of 1 U topoisomerase I. As a control for the functionality of topoisomerase I, SV-40 DNA was incubated either with or without topo I in the absence of GST-ALY and DEK. After 1 h at 37° C., the samples were treated with Proteinase K, and the DNA was purified and analyzed by agarose gel electrophoresis (0.8% at 2V/cm) and SybrGold staining.

[4] = test system: monocyte-depleted peripheral white blood cells; test: In vitro migration assay with monocyte-depleted peripheral white blood cells; type: cell-based, human
Procedure: (A). […] Day 12 MDM grown in 10% serum were maintained for 12 h in serum-free conditioned media alone or with 10 ng/ml of recombinant IL-8. Supernatants were harvested, and secreted DEK detected in the supernatant by Western blot using DEK-specific monoclonal antibody. (B). DEK is a chemoattractant. Monocyte-depleted peripheral white blood cells were prepared. 1×10^5 cells in 100 μl RPMI were placed in the upper chambers of a 24-well chemotaxis microchamber plate with pore size of 3 μM. Lower chambers contained RPMI medium with various concentrations of recombinant DEK (made in baculovirus), recombinant GLI-2 control protein (also made in baculovirus), or no protein control (C′). After 1 h, the number of fluorescently labeled migrating cells in the lower chamber was determined at 485 nM/535 nm wavelengths by Tecan GENios (Phenix, Austria). The results are expressed as the average fold increase of the number of cells migrating toward DEK or GLI-2 compared to control wells containing medium only. Data shown using 34 nM and 68 nM DEK are the average of three different donors, while data using 136 nM DEK are the average of six different donors. […] (C). […] Fluorescence profiles were recorded by FACS analysis. The results are expressed as the average fold increase of the percentage of cells migrating toward DEK vs. control wells containing medium only. […]

B1: DEK: full-length recombinant DEK protein produced in baculovirus (protein, UniProt P35659 1-375, looked up)
chain: MSASAPAAEGEGTPTQPASEKEPEMPGPREESEEEEDEDDEEEEEEEKEKSLIVEGKREKKKVERLTMQVSSLQREPFTIAQGKGQKLCEIERIHFFLSKKKTDELRNLHKLLYNRPGTVSSLKKNVGQFSGFPFEKGSVQYKKKEEMLKKFRNAMLKSICEVLDLERSGVNSELVKRILNFLMHPKPSGKPLPKSKKTCSKGSKKERNSSGMARKAKRTKCPEILSDESSSDEDEKKNKEESSDDEDKESEEEPPKKTAKREKPKQKATSKSKKSVKSANVKKADSSTTKKNQNSSKKESESEDSSDDEPLIKKLKKPPTDEELKETIKKLLASANLEEVTMKQICKKVYENYPTYDLTERKDFIKTTVKELIS
modifications: full-length
notes: full-length recombinant DEK protein produced in baculovirus
endothelial cell chemotaxis [1]: does attract endothelial cells
neutrophil migration into the peritoneum [2]: significantly increased the infiltration of neutrophils; also recorded: significantly induces neutrophil migration
induction of DNA supercoiling [3]: induced supercoiling
migration of CD8+ cells and CD56+ cells towards DEK ([4]; 79 nM DEK, 1 hour, FACS analysis, vs medium only): statistically significant
migration of white blood cells toward DEK ([4]; 34, 68, 136 nM DEK in lower chamber, 1 h, vs GLI-2 control protein or media alone): statistically significant; also recorded: increase in a dose-dependent fashion
